Laboratory results taken from US20010052137A1, “Axin domain-like polypeptide inhibitors of glycogen synthase kinase 3 beta activity and activators of wnt signaling” (Trustees of the University of Pennsylvania, priority 2000, published 2001).
Entries after “also recorded” stand apart in the source; their conditions may differ.

How the values were obtained:
GSK-3 beta [1] = assay: In ovo tau phosphorylation assay: GSK-3 beta and Xaxin constructs co-expressed in Xenopus oocytes; type: cell-based; conditions: construct co-expressed with GSK-3 beta in Xenopus oocytes; tau microinjected; PHF-1 immunoblot
Procedure: Stage VI Xenopus oocytes were isolated by collagenase treatment (Smith et al., 1994, Meth. Cell Biol. 36:45-58) and were injected with mRNA prepared by in vitro transcription (mMessage Machine™; Ambion, Austin, Tex.). 10 nanoliters of mRNA (containing 1-2 nanograms per nanoliter) was injected for each construct (unless otherwise specified), and the injected oocytes were incubated for 16 hours at 18° C. To analyze the effects of Xaxin constructs on dorsal-ventral pattern formation, Xenopus embryos were injected with 10 nanoliters of mRNA (0.1-0.2 nanogram per nanoliter) into one dorsal or ventral cell of a 4 cell embryo and dorsal axes were assessed at the tadpole stage. For Xaxin co-immunoprecipitation, fertilized eggs were injected with 10 nanoliters of Xaxin tagged with Myc, with hemagglutinin, or with both Myc and hemagglutinin (1 nanogram per nanoliter) and harvested at the blastula stage (stage 8).
In ovo phosphorylation of tau by GSK-3 beta was performed by microinjection of tau protein into oocytes expressing GSK-3 beta and Xaxin constructs. After 90 minutes, oocytes were homogenized and tau phosphorylation was analyzed in western blots using phospho-specific antibodies as described (Hedgepeth et al., 1997, Develop. Biol. 185:82-91). In vitro assays for GSK-3 beta activity were performed as described (Klein et al., 1996, Proc. Natl. Acad. Sci. USA 93:8455-8459). Recombinant GID-2/his protein (described below) was purified by affinity chromatography and added to in vitro assays at selected concentrations.
In the experiments presented in this example, a tau phosphorylation assay (described in Hedgepeth et al., 1997, Develop. Biol. 185:82-91) was used to examine the activity of GSK-3 beta in Xenopus oocytes in the presence of full length axin and axin deletion mutants. […] Furthermore, GSK-3 beta-dependent tau phosphorylation occurs in oocytes at the same sites (tau serine residues 396 and 404) that are phosphorylated by GSK-3 beta in vitro and occurs with similarly rapid kinetics.
GSK-3 beta was expressed in oocytes together with Myc-tagged full length Xaxin or with the amino-terminal (amino acid residues 63-288), GID-1 (amino acid residues 277-545), or carboxyl-terminal (amino acid residues 429-713) fragments of Xaxin, as depicted in FIG. 1A. Purified tau protein was then microinjected into the oocytes, and phosphorylation of tau was measured by immunoblotting using antibody PHF-1 or with antibodies that detect all (i.e. phosphorylated and non-phosphorylated) forms of tau.
In order to identify the domain of axin necessary for GSK-3 beta binding, multiple Myc-tagged GID deletion constructs (shown diagrammatically in FIG. 3A) were individually expressed in Xenopus oocytes in which GSK-3 beta was also expressed. Tau protein was microinjected into the oocytes, and immunoblotting was performed using phosphorylation-state-specific tau antibodies. A parallel group of oocytes expressing GSK-3 beta and the Myc-tagged GID deletion constructs were lysed, and GID proteins were immunoprecipitated using a Myc-specific antibody. The presence or absence of GSK-3 beta in GID immunoprecipitates was detected using GSK-3 beta-specific antibodies. GID deletion constructs which included amino acid residues 380-404 of Xaxin (i.e. constructs GID-1, GID-2, GID-4, GID-5, and GID-6) bound GSK-3 beta and inhibited GSK-3 beta mediated tau phosphorylation, as indicated in FIG. 3A. […] However, changing leucine residue 392 in FIG. 3B to proline abolishes its activity.

GSK-3 beta [2] = assay: Co-immunoprecipitation of GSK-3 beta with Myc-tagged Xaxin constructs in Xenopus oocytes; type: binding; conditions: Myc-tagged construct co-expressed with GSK-3 beta in Xenopus oocytes; anti-Myc IP, anti-GSK-3 beta blot
Xenopus embryos = assay: Dorsal axis duplication / dorsalization in Xenopus embryos after mRNA injection; type: in vivo; conditions: for effect on axial development / axis formation: construct expressed in embryos, injection side not stated

| Molecule | GSK-3 beta-mediated tau phosphorylation (GSK-3 beta activity) (GSK-3 beta [1]) | binding with GSK-3 beta (co-immunoprecipitation) (GSK-3 beta [2]) | effect on axial development / axis formation (Xenopus embryos) | embryos that exhibited dorsalization (Xenopus embryos; construct(s) expressed in Xenopus embryos) |
| --- | --- | --- | --- | --- |
| GID-2: Myc-tagged fragment, Xaxin amino acid residues 320-429 (protein, left off: small tags and cut ends) DSEQQSMSSDADTMSLTDSSVDGIPPYRLRKHYRREMQESANANGRGPLPHIPRTYHMPKDIHVDPEKFAAELISRLEGVLRDREAEQKLEERLKRVRAEEEGDDGDVSS | inhibited | bound | – | – |
| deltaDIX: Xaxin having amino acid residues 778-842 deleted (protein, left off: small tags and cut ends, Xaxin having amino acid residues 778-842 deleted) MSVKGKGFPLDLGGSFTEDAPRPPVPGEEGELITTDQRPFSHTYYSLKNDGIKNETSTATPRRPDLDLGYEPEGSASPTPPYLKWAESLHSLLDDQDGIHLFRTFLQQENCADLLDFWFACSGFRKLEPNDSKVEKRLKLAKAIYKKYVLDSNGIVSRQIKPATKSFIKDCVLRQQIDPAMFDQAQMEIQSMMEDNTYPVFLKSDIYLEYTTIGGESPKNYSDQSSGSGTGKGPSGYLPTLNEDEEWRCDQGGEHERERECIPSSLFSQKLALDSSSHCAGSNRRLSDGREFRPGTWREPVNPYYVNTGYAGAPVTSANDSEQQSMSSDADTMSLTDSSVDGIPPYRLRKHYRREMQESANANGRGPLPHIPRTYHMPKDIHVDPEKFAAELISRLEGVLRDREAEQKLEERLKRVRAEEEGDDGDVSSGPSVISHKLPSGPPMHHFNSRYSETGCVGMQIRDAHEENPESILDEHVQRVMKTPGCQSPGTGRHSPKSRSPDGHLSKTLPGSLGTMQTGHGKHSSKSTAKVDSGNLHHHKHVYHHVHHHGGVKPKEQIDGESTQRVQTNFPWNVESHNYATKSRNYAESMGMAPNPMDSLAYSGKVSMLSKRNAKKADLGKSESASHEMPVVPEDSERHQKILQWIMEGEKEIIRHKKSNHSSSSAKKQPPTELARPLSIERPGAVHPWVSAQLRNVVQPSHPFIQDPTMPPNPAPNPLTQLVSKPGARLEEEEKKAAKMPQKQRLKPQKKNVSAPSQPCDNIVVAYYFCGEPIPYRT | partially inhibited | bound | – | – |
| GID-1: Myc-tagged fragment, amino acid residues 277-545 of Xenopus axin (Xaxin) (protein, left off: small tags and cut ends) SHCAGSNRRLSDGREFRPGTWREPVNPYYVNTGYAGAPVTSANDSEQQSMSSDADTMSLTDSSVDGIPPYRLRKHYRREMQESANANGRGPLPHIPRTYHMPKDIHVDPEKFAAELISRLEGVLRDREAEQKLEERLKRVRAEEEGDDGDVSSGPSVISHKLPSGPPMHHFNSRYSETGCVGMQIRDAHEENPESILDEHVQRVMKTPGCQSPGTGRHSPKSRSPDGHLSKTLPGSLGTMQTGHGKHSSKSTAKVDSGNLHHHKHVYHH | virtually complete inhibition; also recorded: inhibited | bound | complete axis duplication | – |
| GID-4: Myc-tagged fragment, Xaxin amino acid residues 350-429 (protein, left off: small tags and cut ends) KHYRREMQESANANGRGPLPHIPRTYHMPKDIHVDPEKFAAELISRLEGVLRDREAEQKLEERLKRVRAEEEGDDGDVSS | inhibited | bound | – | – |
| deltaRGS: Xaxin having amino acid residues 80-290 (RGS domain) deleted (protein, left off: small tags and cut ends, Xaxin having amino acid residues 80-290 (RGS domain) deleted) MSVKGKGFPLDLGGSFTEDAPRPPVPGEEGELITTDQRPFSHTYYSLKNDGIKNETSTATPRRPDLDLGYEPEGSASPTPREFRPGTWREPVNPYYVNTGYAGAPVTSANDSEQQSMSSDADTMSLTDSSVDGIPPYRLRKHYRREMQESANANGRGPLPHIPRTYHMPKDIHVDPEKFAAELISRLEGVLRDREAEQKLEERLKRVRAEEEGDDGDVSSGPSVISHKLPSGPPMHHFNSRYSETGCVGMQIRDAHEENPESILDEHVQRVMKTPGCQSPGTGRHSPKSRSPDGHLSKTLPGSLGTMQTGHGKHSSKSTAKVDSGNLHHHKHVYHHVHHHGGVKPKEQIDGESTQRVQTNFPWNVESHNYATKSRNYAESMGMAPNPMDSLAYSGKVSMLSKRNAKKADLGKSESASHEMPVVPEDSERHQKILQWIMEGEKEIIRHKKSNHSSSSAKKQPPTELARPLSIERPGAVHPWVSAQLRNVVQPSHPFIQDPTMPPNPAPNPLTQLVSKPGARLEEEEKKAAKMPQKQRLKPQKKNVSAPSQPCDNIVVAYYFCGEPIPYRTMVKGRVVTLGQFKELLTKKGNYRYYFKKVSDEFDCGVVFEEVREDDMILPIYEEKIIGQVEKID | inhibited | bound | complete axis duplication | 86% |
| deltaGID: Xaxin having amino acid residues 324-504 deleted (protein, left off: small tags and cut ends, Xaxin having amino acid residues 324-504 deleted) MSVKGKGFPLDLGGSFTEDAPRPPVPGEEGELITTDQRPFSHTYYSLKNDGIKNETSTATPRRPDLDLGYEPEGSASPTPPYLKWAESLHSLLDDQDGIHLFRTFLQQENCADLLDFWFACSGFRKLEPNDSKVEKRLKLAKAIYKKYVLDSNGIVSRQIKPATKSFIKDCVLRQQIDPAMFDQAQMEIQSMMEDNTYPVFLKSDIYLEYTTIGGESPKNYSDQSSGSGTGKGPSGYLPTLNEDEEWRCDQGGEHERERECIPSSLFSQKLALDSSSHCAGSNRRLSDGREFRPGTWREPVNPYYVNTGYAGAPVTSANDSEQQHLSKTLPGSLGTMQTGHGKHSSKSTAKVDSGNLHHHKHVYHHVHHHGGVKPKEQIDGESTQRVQTNFPWNVESHNYATKSRNYAESMGMAPNPMDSLAYSGKVSMLSKRNAKKADLGKSESASHEMPVVPEDSERHQKILQWIMEGEKEIIRHKKSNHSSSSAKKQPPTELARPLSIERPGAVHPWVSAQLRNVVQPSHPFIQDPTMPPNPAPNPLTQLVSKPGARLEEEEKKAAKMPQKQRLKPQKKNVSAPSQPCDNIVVAYYFCGEPIPYRTMVKGRVVTLGQFKELLTKKGNYRYYFKKVSDEFDCGVVFEEVREDDMILPIYEEKIIGQVEKID | no discernible effect | did not bind | infrequent ectopic posterior axis formation | – |
